From patent publication US20260097076A1 (ELPIS BIOPHARMACEUTICALS, published 2026)

T1: B Cell Maturation Antigen (BCMA) on cells (UniProt Q02223 1-184, limits assumed)
T1 construct: whole, on cells; One molecule is used for the recombinant (CHOK1) and the endogenous (myeloma lines) cell-surface BCMA; also called tumor necrosis factor receptor superfamily member 17 (TNFRSF17); CD269
T1 sequence (looked up): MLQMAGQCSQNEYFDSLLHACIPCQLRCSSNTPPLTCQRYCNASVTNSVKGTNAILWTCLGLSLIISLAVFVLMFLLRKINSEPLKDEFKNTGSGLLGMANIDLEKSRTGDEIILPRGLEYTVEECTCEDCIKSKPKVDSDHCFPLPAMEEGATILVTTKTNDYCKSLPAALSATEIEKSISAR

T2: Human BCMA-Fc (human, UniProt Q02223 1-54)
T2 construct: also called human BCMA-Fc protein; recombinant BCMA-Fc fusion protein; not shown: Fc part (captured by anti-human Fc antibody or Protein A)
T2 sequence (looked up): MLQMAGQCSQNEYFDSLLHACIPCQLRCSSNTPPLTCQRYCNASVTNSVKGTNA


Key:
[1] = target: T1, B Cell Maturation Antigen (BCMA) on …; assay: flow cytometry, serial diluted scFv on BCMA/CHOK1 cells
Procedure: Cells were spun down at 1200 rpm for 6 minutes at 4° C. to remove primary antibodies. Cells were then washed once with 200 μL of full medium per well. Samples were detected with premixed anti-His Biotin Streptavidin Alexa fluor 647 by adding 100 μL of diluted secondary antibody and incubated at 4° C. for 30 minutes in the dark. Samples were spun down at 1200 rpm for 5 minutes at 4° C. and washed twice with 200 μL of 1×PBS per well. Reconstituted samples in 200 μL of 1×PBS and read on Attune NxT cytometer. Analysis was done by Attune NxT software plotting the overlaying the histogram of anti-BCMA scFvs binding onto both negative and target cell lines. […] The BCMA cell binding affinity for exemplary anti-BCMA antibodies (in scFv format) was also generated with serial diluted scFvs as described above.

[2] = target: T2, Human BCMA-Fc; assay: SPR, Biacore T200, BCMA-Fc captured on Protein A chip, scFv as analyte
Procedure: Kinetic analysis of anti-BCMA scFvs have been assessed by SPR technology with Biacore T200. The assay was run with Biacore T200 control software version 2.0. Protein A sensor chip was used to capture Fc fusion protein in the assay. For each cycle, 1 μg/mL of human BCMA-Fc protein was captured for 60 seconds at flow rate of 10 ul/min on flow cell 2 in 1×HBSP buffer on Protein A sensor chip. 2-fold serial diluted HIS tag purified anti-BCMA scFv was injected onto both reference flow cell 1 and BCMA-Fc captured flow cell 2 for 150 seconds at flow rate of 30 ul/min followed by wash for 300 seconds. The flow cells were then regenerated with Glycine pH2 buffer (GE) for 30 seconds at flow rate of 30 ul/mins. 8 concentration points from 300-0 nM was assayed per anti-BCMA scFv in a 96 well plate. The kinetics of scFvs binding to BCMA protein was analyzed with Biacore T200 evaluation software version 3.0. The specific binding response unit was derived from subtraction of binding to reference flow cell 1 from BCMA captured flow cell 2.

[3] = target: T2, Human BCMA-Fc; assay: ELISA, human BCMA-Fc captured by anti-human Fc, scFv detected with anti-Flag HRP
Procedure: An ELISA assay was developed to determine the EC₅₀ of anti-BCMA antibodies. Briefly, 384 well plate was immobilized with anti-human Fc antibody at final concentration of 2 μg/mL in 1×PBS in total volume of 25 uL per well. The plate was incubated overnight at 4° C. followed by blocking with 80 μL of superblock per well for 1 hour. Human BCMA-Fc was captured through immobilized anti-hFc antibody. Purified anti-BCMA scFvs were 2-fold serial titrated from 200 nM. 25 μL of diluted scFv was added to human BCMA immobilized wells and incubated for 1 hour with shaking. The BCMA binding was detected by adding 25 μL of anti-Flag HRP diluted at 1:5000 in 1×PBST. In between each step, the plate was washed 3 times with 1×PBST in a plate washer. The plate was then developed with 20 μL of TMB substrate for 5 mins and stopped by adding 20 μL of 2 N sulfuric acid. The plate was read at OD450 nm Biotek plate reader and then plotted in Prism 8.1 software.

[4] = target: T1, B Cell Maturation Antigen (BCMA) on …; assay: flow cytometry on H929 multiple myeloma cells (endogenous BCMA)
[5] = target: T1, B Cell Maturation Antigen (BCMA) on …; assay: flow cytometry on MM1R multiple myeloma cells (endogenous BCMA)

Row | Binder | EC50 [1] [nM] | Kd [2] [nM] | koff [2] [s⁻¹] | kon [2] [M⁻¹ s⁻¹] | EC50 [3] [nM] | EC50 [4] [nM] | EC50 [5] [nM]
1 | BC-02 (anti-BCMA antibody in scFv format) (scFv, Human scFv from mRNA display, VH-(G4S)3-VL, expressed in E. coli periplasm, His-purified; not shown: C-terminal flag and 6xHis tag) scFv: QVQLVQSGGGVVQPGGSLRLSCAASGFTFSSYGMHWVRQAPGKVLEWVAFIRYDGSNKYYADSVKGRFTISRDNSKNTLYLQMNSLRAEDTAVYYCAKDWDYYDSSGYYPDALGIWGQGTMVTVSSGGGGSGGGGSGGGGSEIVLTQSPSSLSASVGDRVTITCQASQDISNYLNWYQQKPGKAPKLLIYDASNLETGVPSRFSGSGSGTDFTFTISSLQPEDIATYYCQQYDNLPFTFGPGTKVDIK | 84 | 12.9 | 0.00118 | 91600 | 1.92 |  | 
2 | BC-05 (anti-BCMA antibody in scFv format) (scFv, Human scFv from mRNA display, VH-(G4S)3-VL, expressed in E. coli periplasm, His-purified; not shown: C-terminal flag and 6xHis tag) scFv: QMQLVQSGGGVVQPGGSLRLSCAASGFTFSSYGMHWVRQAPGKGLEWVAFIRYDGSNKYYADSVKGRFTISRDNSKNTLYLQMNSLRAEDTAVYYCAKDWEDPLYYYDTPFWGQGTLVTVSSGGGGSGGGGSGGGGSVIWMTQSPSSVSASVGDIITITCQASQDINNYLNWYQLKPGKAPKLLIYDASNVETGVPSRFSGSGSGTDFTFTISSLQPEDTATYYCQQYDKLPYTFGQGTKLEIK | 4.91 | 10.4 | 0.000646 | 62400 | 0.536 |  | 
3 | BC-06 (anti-BCMA antibody in scFv format) (scFv, Human scFv from mRNA display, VH-(G4S)3-VL, expressed in E. coli periplasm, His-purified; also called clone BC-06; not shown: C-terminal flag and 6xHis tag) scFv: EVQLVESGGGLVQPGRSLRLSCAASGFTFDDYAMHWVRQAPGKGLEWVSGISWNSGSIGYADSVKGRFTISRDNAKNSLYLQMNSLRAEDTALYYCAKVQPPGAFDIWGQGTMVTVSSGGGGSGGGGSGGGGSDIQLTQSPSFLSASVGDRVSITCRSTQGISSYLGWYQQKPGKAPKLLIYATSTLQSGVPSRFSGSGSGTEFTLTISSLQPEDFATYYCQQLYSFGQGTKLEIK | 1.9 | 7.87 | 0.00251 | 319000 | 0.62 | 2.85 | 0.74
4 | BC-01 (anti-BCMA antibody in scFv format) (scFv, Human scFv from mRNA display, VH-(G4S)3-VL, expressed in E. coli periplasm, His-purified; not shown: C-terminal flag and 6xHis tag) scFv: EVQLVQSGGGVVQPGGSLRLSCAASGFTFSSYGMHWVRQAPGKGLEWVAFIRYDGSNKYYADSVKGRFTISRDNSKNTLYLQMNSLRAEDTAVYYCAKDLWDGIVGAPAGYWGQGTLVTVSSGGGGSGGGGSGGGGSDVVMTQSPSSLSASVGDRVTITCQASQDISNYLNWYQQKPGKAPKLLIYDASNLETGVPSRFSGSGSGTDFTFTISSLQPEDIATYYCQQYDNLPLTFGGGTKVEIK | 18.9 | 3 | 0.000431 | 144000 | 0.938 |  | 
5 | BC-03 (anti-BCMA antibody in scFv format) (scFv, Human scFv from mRNA display, VH-(G4S)3-VL, expressed in E. coli periplasm, His-purified; not shown: C-terminal flag and 6xHis tag) scFv: QMQLVQSGGGVVQPGGSLRLSCAASGFTFSSYGMHWVRQAPGKGLEWVAFIRYDGSDKYYADSVKGRFTISRDNSKNTLYLQMNSLRAEDTAVYYCAKDLTTITPGYWGQGTLVTVSSGGGGSGGGGSGGGGSVIQMTQSPSSLSASVGDRVTITCQASQDISNYLNWYQQKPGKAPKLLIYDASNLETGVPSRFSGSGSGTDFTFTISSLQPEDIATYYCQQYDNLPLTFGGGTKVEIK | 16.1 | 11.9 | 0.00359 | 302000 | 2.32 |  | 

Now from value to binder:

Row | EC50 [1] [nM] | Kd [2] [nM] | koff [2] [s⁻¹] | kon [2] [M⁻¹ s⁻¹] | EC50 [3] [nM] | EC50 [4] [nM] | EC50 [5] [nM] | Binder
6 | 1 | 0.653 | 0.00116 | 1.78e+06 | 0.299 |  |  | BC-08 (anti-BCMA antibody in scFv format) (scFv, Human scFv from mRNA display, VH-(G4S)3-VL, expressed in E. coli periplasm, His-purified; not shown: C-terminal flag and 6xHis tag) scFv: QVQLVQSGGGVVQPGRSLRLSCAASGFTFSSYAMHWVRQAPGKGLEWVAVISYDGSNKYYADSVKGRFTISRDNAENSVYLQMNSLRAEDTAVYYCARDEHQVVPNYRFDFWGQGSQVTVSSGGGGSGGGGSGGGGSQLVLTQPPSASGTPGQRVTISCSGSGSNIGSNDVSWYQQIPGTASKLLIYWNDQRPSGVPDRFSGSKSGTSASLAISGLQSEDEADYYCAAWDDSLNGWVFGGGTKLTVL
7 | 13.2 | 26.2 | 0.00592 | 226000 | 0.802 |  |  | BC-07 (anti-BCMA antibody in scFv format) (scFv, Human scFv from mRNA display, VH-(G4S)3-VL, expressed in E. coli periplasm, His-purified; not shown: C-terminal flag and 6xHis tag) scFv: EVQLVESGGGLVQPGRSLRLSCAASGFTFDDYAMHWVRQAPGKGLEWVSGISWNSGSIGYADSVKGRFTISRDNAKNSLYLQMNSLRAEDTALYYCAKVQSPGAFDIWGQGTMVTVSSGGGGSGGGGSGGGGSDIQLTQSPSFLSASVGDRVSITCRSTQGISSYLGWYQQKPGKAPKLLIYATSTLQSGVPSRFSGSGSGTEFTLTISSLQPEDFATYYCQQLYSFGQGTKLEIK
8 | 5.28 | 19.6 | 0.00407 | 208000 | 0.597 |  |  | BC-09 (anti-BCMA antibody in scFv format) (scFv, Human scFv from mRNA display, VH-(G4S)3-VL, expressed in E. coli periplasm, His-purified; not shown: C-terminal flag and 6xHis tag) scFv: QVQLVQSGGGVVQPGGSLRLSCAASGFTFSSYGMHWVRQAPGKGLEWVAFIRYDGSNKYYADSVKGRFTISRDNSKNTLYLQMNSLRAEDTAVYYCAKDLWEFGGDYADYWGQGTLVTVSSGGGGSGGGGSGGGGSNIQMTQSPSSLSASVGDRVTITCQASQDISNYLNWYQQKPGKAPKLLIYDASNLETGVPSRFSGSGSGTDFTFTISSLQPEDIATYYCQQYDNLPLTFGGGTKVEIK
